Measured values reported in the supplement of paper PMC10724198.
± gives the standard deviation of the averaged measurements.

Test system: Saccharomyces cerevisiae
Test: protein stability index of tFT-peptide fusion (C-terminal peptide) (PSI (0-1 scale)); higher = more stable (slower turnover)
Conditions: temperature: 30 C
Method: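 MPS profiling in S. cerevisiae of the yeast C-terminome library: the last 12 aa of each annotated ORF are fused to the C-terminus of a sfGFP-mCherry timer, after a GGGS linker. Cells are FACS-sorted into 8 mCherry/sfGFP bins and deep-sequenced. PSI runs from 0 (unstable) to 1 (stable); wild type and das1Δ backgrounds, two technical replicates each.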

[1] = genetic background: das1 deletion

Sequence | protein stability index [1] | protein stability index (genetic background: wild type)
ASPTCTPQNPCV [CAB4 C-terminal 12 aa] | 0.706 ± 0.021 | 0.735 ± 0.062
ASYIQSREICLV [GNT1 C-terminal 12 aa] | 0.6464 ± 0.006 | 0.5859 ± 0.0036
ATGGKKTTFADE [RPA14 C-terminal 12 aa] | 0.711 ± 0.054 | 0.667 ± 0.036
ATTDQEGDIHLE [PRE10 C-terminal 12 aa] | 0.689 ± 0.026 | 0.678 ± 0.038
ATTNISVLQECV [VRL1 C-terminal 12 aa] | 0.666 ± 0.018 | 0.642 ± 0.011
AWVPPTEDDSDE [DPH5 C-terminal 12 aa] | 0.698 ± 0.018 | 0.665 ± 0.0093
AYLQYYSESPEN [DUG1 C-terminal 12 aa] | 0.707 ± 0.0053 | 0.724 ± 0.051
CFFLRKENGKDE [YLR120W-A C-terminal 12 aa] | 0.709 ± 0.041 | 0.687 ± 0.017
CHLLFGTHKKTL [YBL071C-B C-terminal 12 aa] | 0.7233 ± 0.002 | 0.6921 ± 0.003
CKQWEISNMLKK [CSI1 C-terminal 12 aa] | 0.738 ± 0.023 | 0.664 ± 0.04
CKYPTKDIPIFF [RAD17 C-terminal 12 aa] | 0.727 ± 0.013 | 0.734 ± 0.013
CLSLDFVVPRPK [SHR5 C-terminal 12 aa] | 0.74 ± 0.016 | 0.697 ± 0.048
CMRPANQEIYPL [YLR157W-D C-terminal 12 aa] | 0.704 ± 0.02 | 0.681 ± 0.017
CSGAAGKIYVCD [CDC40 C-terminal 12 aa] | 0.6678 ± 0.005 | 0.723 ± 0.01
CTSCGYKFRTNN [RPA12 C-terminal 12 aa] | 0.7397 ± 0.0049 | 0.2522 ± 0.002
CTSLLKGERKKE [RRT8 C-terminal 12 aa] | 0.6656 ± 0.00077 | 0.685 ± 0.012
DAFEKAIEAVYA [ARG8 C-terminal 12 aa] | 0.546 ± 0.014 | 0.558 ± 0.012
DAFTDPRQYHLT [BUD19 C-terminal 12 aa] | 0.717 ± 0.0052 | 0.69 ± 0.0082
DAHIYNKRSKPD [PHO80 C-terminal 12 aa] | 0.646 ± 0.012 | 0.662 ± 0.04
DDAKDSNNSSLR [WSC2 C-terminal 12 aa] | 0.682 ± 0.011 | 0.724 ± 0.0081
DDAVNCNTSNCL [ZRC1 C-terminal 12 aa] | 0.7026 ± 0.002 | 0.698 ± 0.017

Sequence | protein stability index [1] | protein stability index (genetic background: wild type)
DDEEATAMFKLE [IES1 C-terminal 12 aa] | 0.715 ± 0.0089 | 0.6754 ± 0.0028
DDNEPDEEANRA [RXT2 C-terminal 12 aa] | 0.672 ± 0.012 | 0.6656 ± 0.0043
DDTLERAGRIKN [FAD1 C-terminal 12 aa] | 0.69 ± 0.023 | 0.709 ± 0.019
DECFCLARHEND [TDP1 C-terminal 12 aa] | 0.7114 ± 0.0022 | 0.708 ± 0.023
DEKTLDSIGNSL [VCX1 C-terminal 12 aa] | 0.701 ± 0.0096 | 0.696 ± 0.013
DENDKVIAIKVV [VPS25 C-terminal 12 aa] | 0.5736 ± 0.00061 | 0.525 ± 0.011
DGFSVPITTFQT [CDC15 C-terminal 12 aa] | 0.712 ± 0.011 | 0.709 ± 0.045
DHLHNLAQYWRT [VPS34 C-terminal 12 aa] | 0.697 ± 0.015 | 0.703 ± 0.038
DIIKQGVNDIIV [ARD1 C-terminal 12 aa] | 0.672 ± 0.015 | 0.717 ± 0.033
DIISAFEEYKNA [SEC3 C-terminal 12 aa] | 0.714 ± 0.036 | 0.685 ± 0.026
DLEEAANKAQPQ [YLR257W C-terminal 12 aa] | 0.6993 ± 0.0011 | 0.7125 ± 0.0015
DLESLFKEKLSI [ALA1 C-terminal 12 aa] | 0.7111 ± 0.0015 | 0.705 ± 0.02
DLEVKLKKHKKN [TRZ1 C-terminal 12 aa] | 0.733 ± 0.029 | 0.676 ± 0.05
DLVKAAAGSDNE [RRP15 C-terminal 12 aa] | 0.6823 ± 0.0059 | 0.675 ± 0.018
DLVKASSTLNVS [SDL1 C-terminal 12 aa] | 0.682 ± 0.0043 | 0.672 ± 0.0084
DMGKNLLQNKKF [ERG2 C-terminal 12 aa] | 0.695 ± 0.039 | 0.695 ± 0.012
DNDDDAGAVPTS [CDC13 C-terminal 12 aa] | 0.7113 ± 0.0012 | 0.684 ± 0.011
DPKLYFDATILS [TDA3 C-terminal 12 aa] | 0.703 ± 0.025 | 0.691 ± 0.013
DSQDMERMDSDS [YLR076C C-terminal 12 aa] | 0.691 ± 0.035 | 0.745 ± 0.11
DSQHKHDYSHSG [DCK1 C-terminal 12 aa] | 0.6787 ± 0.0061 | 0.715 ± 0.035
DTFPRWEGIKSK [PAD1 C-terminal 12 aa] | 0.70511 ± 2.5e-05 | 0.6968 ± 0.0043

Sequence | protein stability index [1] | protein stability index (genetic background: wild type)
DVEDVERVSKKI [CDC34 C-terminal 12 aa] | 0.704 ± 0.057 | 0.67 ± 0.032
DWESNQAKWIYE [YNK1 C-terminal 12 aa] | 0.752 ± 0.034 | 0.718 ± 0.029
DYKTKRNPSVLH [ISU2 C-terminal 12 aa] | 0.6878 ± 0.0024 | 0.7106 ± 0.0056
DYSRRVLRLMNE [WSC4 C-terminal 12 aa] | 0.7058 ± 0.0028 | 0.5834 ± 0.0049
DYWRKRGISSVY [ECM38 C-terminal 12 aa] | 0.68703 ± 0.00044 | 0.72719 ± 0.0003
DYYFRTGVKRLQ [ARP10 C-terminal 12 aa] | 0.705 ± 0.028 | 0.732 ± 0.044
EAETPGIIDKHQ [SIS2 C-terminal 12 aa] | 0.689 ± 0.023 | 0.677 ± 0.044
EALPPCLQIFRP [YDR354C-A C-terminal 12 aa] | 0.701 ± 0.0091 | 0.6739 ± 0.0039
EAQLSCSEESLA [COS1 C-terminal 12 aa] | 0.69057 ± 5e-06 | 0.683 ± 0.024
EASEPFKTFKNT [MMS22 C-terminal 12 aa] | 0.724 ± 0.0073 | 0.696 ± 0.0087
EDDFGPKPKFFI [SWE1 C-terminal 12 aa] | 0.71 ± 0.011 | 0.683 ± 0.039
EEEEEEGKEGDA [SCT1 C-terminal 12 aa] | 0.684 ± 0.012 | 0.697 ± 0.0061
EEKKKQEEGHSN [MNN4 C-terminal 12 aa] | 0.699 ± 0.0072 | 0.663 ± 0.03
EFAKCEFETPAV [CKB1 C-terminal 12 aa] | 0.722 ± 0.011 | 0.74 ± 0.0048
EFDLADDRRYDI [TPO5 C-terminal 12 aa] | 0.705 ± 0.03 | 0.682 ± 0.011
EGIFPANYVELV [LSB3 C-terminal 12 aa] | 0.7016 ± 0.0045 | 0.678 ± 0.037
EGPVTIILDSDQ [DTD1 C-terminal 12 aa] | 0.701 ± 0.0098 | 0.7015 ± 0.0042
EKKFKEILNIQW [PET112 C-terminal 12 aa] | 0.709 ± 0.025 | 0.722 ± 0.01
EKKYSNNTNAIQ [CTI6 C-terminal 12 aa] | 0.68042 ± 0.00045 | 0.657 ± 0.024
EKPEGKDTKTEE [CMK1 C-terminal 12 aa] | 0.685 ± 0.022 | 0.684 ± 0.051
EKQSSTASEKAA [THI7 C-terminal 12 aa] | 0.6813 ± 0.0064 | 0.704 ± 0.029

Sequence | protein stability index [1] | protein stability index (genetic background: wild type)
EKRLQKEIKSIE [IDP1 C-terminal 12 aa] | 0.734 ± 0.012 | 0.673 ± 0.06
ELDEIANSLENL [TPM2 C-terminal 12 aa] | 0.694 ± 0.019 | 0.683 ± 0.01
ELKRKDALSKKI [COA2 C-terminal 12 aa] | 0.688 ± 0.048 | 0.75 ± 0.017
ELLQSFSLVLTL [YKL153W C-terminal 12 aa] | 0.64297 ± 0.00021 | 0.632 ± 0.024
ELPAQKSTVISE [GEP7 C-terminal 12 aa] | 0.733 ± 0.039 | 0.702 ± 0.039
ELQDALNTELLF [VAC17 C-terminal 12 aa] | 0.7157 ± 0.0042 | 0.699 ± 0.0099
ELTFDVKLVSMK [FPR4 C-terminal 12 aa] | 0.686 ± 0.0071 | 0.687 ± 0.034
ENLRLKLKNFLR [MSH5 C-terminal 12 aa] | 0.683 ± 0.0095 | 0.688 ± 0.022
ENRTMFLSKGKS [YPR172W C-terminal 12 aa] | 0.701 ± 0.024 | 0.667 ± 0.016
EPKYVDEDDWSD [CEG1 C-terminal 12 aa] | 0.69393 ± 0.00048 | 0.68 ± 0.02
EQFTRDFGQEGN [VPS4 C-terminal 12 aa] | 0.7187 ± 0.0015 | 0.671 ± 0.016
EQLGHASKRHKP [RPP1 C-terminal 12 aa] | 0.694 ± 0.011 | 0.689 ± 0.0075
ERGMYRYYSLKA [LUG1 C-terminal 12 aa] | 0.623 ± 0.028 | 0.621 ± 0.015
ERLRFYKDTFTL [RRI1 C-terminal 12 aa] | 0.726 ± 0.0089 | 0.653 ± 0.011
ERRLSDLQQYHI [TMA10 C-terminal 12 aa] | 0.6982 ± 0.0017 | 0.683 ± 0.02
ERVKIGVQFYEE [RTG2 C-terminal 12 aa] | 0.708 ± 0.013 | 0.736 ± 0.042
ESDDDMGFGLFD [RPP0 C-terminal 12 aa] | 0.7176 ± 0.002 | 0.717 ± 0.016
ESHQDKTEEDIH [OKP1 C-terminal 12 aa] | 0.69113 ± 0.00011 | 0.726 ± 0.035
ESISYLFKNYPL [PRS3 C-terminal 12 aa] | 0.717 ± 0.015 | 0.6937 ± 0.0036
ESTTDAESKGSK [MRPL11 C-terminal 12 aa] | 0.676 ± 0.015 | 0.706 ± 0.11
